This series deals with the molecule itself. In words: cryo-EM structure.

B1: human VMAT1(ΔL1/2) (natural protein, UniProt P54219 1-525, looked up)
chain: MLRTILDAPQRLLKEGRASRQLVLVVVFVALLLDNMLFTVVVPIVPTFLYDMEFKEVNSSLHLGHAGSNCLQGTGFLEEEITRVGVLFASKAVMQLLVNPFVGPLTNRIGYHIPMFAGFVIMFLSTVMFAFSGTYTLLFVARTLQGIGSSFSSVAGLGMLASVYTDDHERGRAMGTALGGLALGLLVGAPFGSVMYEFVGKSAPFLILAFLALLDGALQLCILQPSKVSPESAKGTPLFMLLKDPYILVAAGSICFANMGVAILEPTLPIWMMQTMCSPKWQLGLAFLPASVSYLIGTNLFGVLANKMGRWLCSLIGMLVVGTSLLCVPLAHNIFGLIGPNAGLGLAIGMVDSSMMPIMGHLVDLRHTSVYGSVYAIADVAFCMGFAIGPSTGGAIVKAIGFPWLMVITGVINIVYAPLCYYLRSPPAKEEKLAILSQDCPMETRMYATQKPTKEFPLGEDSDEEPDHEE
A word on the stoichiometry N: it is a count of units in the complex or per binding partner. Take B1: the “stoichiometry N” value was determined as 2.
